Source: US20240229081

System: Nla type I-C Cascade-Cas3 in E. coli (Neisseria lactamica)
Test: cell_activity
Conditions: PAM TTC; E. coli plasmid interference

Substance: Nla native CRISPR spacer 1 crRNA ; spacer 1 target with TTC PAM, plasmid
- activity: 1000 fold
